# Experimental data published in US20210246166A1 (Bayer, published 2021).
# Bridge positions count the residues as written; N and C are the ends. Square brackets hold non-standard residues; d marks the D form. Ends that are not written are not given here. Pro(cis-4-CF3) = O=C(O)[C@@H]1C[C@H](C(F)(F)F)CN1; Oic = O=C(O)[C@@H]1C[C@@H]2CCCC[C@@H]2N1; tBuAla = CC(C)(C)C[C@H](N)C(=O)O; Pen = CC(C)(S)[C@H](N)C(=O)O; 4Amb = NCc1ccc(C(=O)O)cc1; NMeC = CN[C@@H](CS)C(=O)O; NMeA = CN[C@@H](C)C(=O)O; GABA = NCCCC(=O)O; Sar = CNCC(=O)O
# B1: HIC+SRS-((tBu)A)-PPI-((N-Me)C)+I-NH2 (peptide)
# peptide: HICSRS[tBuAla]PPI[NMeC]I-NH2
# modifications: disulfide 3-11; N-terminus assumed
# SMILES: CC[C@H](C)[C@H](NC(=O)[C@@H]1CSSC[C@H](NC(=O)[C@@H](NC(=O)[C@@H](N)Cc2c[nH]cn2)[C@@H](C)CC)C(=O)N[C@@H](CO)C(=O)N[C@@H](CCCNC(=N)N)C(=O)N[C@@H](CO)C(=O)N[C@@H](CC(C)(C)C)C(=O)N2CCC[C@H]2C(=O)N2CCC[C@H]2C(=O)N[C@@H]([C@@H](C)CC)C(=O)N1C)C(N)=O
# B2: AIC+SRS-((tBu)A)-P-(Oic)-I-((N-Me)C)+IPD-OH (HCl salt) (peptide)
# peptide: AICSRS[tBuAla]P[Oic]I[NMeC]IPD-OH
# modifications: disulfide 3-11; also: HCl salt
# B3: ((N-Me)G)-IC+SRS-((tBu)A)-PPI-(Pen)+IP-NH2 (peptide)
# peptide: [Sar]ICSRS[tBuAla]PPI[Pen]IP-NH2
# modifications: disulfide 3-11; N-terminus assumed
# SMILES: CC[C@H](C)[C@H](NC(=O)CNC)C(=O)N[C@H]1CSSC(C)(C)[C@@H](C(=O)N[C@H](C(=O)N2CCC[C@H]2C(N)=O)[C@@H](C)CC)NC(=O)[C@H]([C@@H](C)CC)NC(=O)[C@@H]2CCCN2C(=O)[C@@H]2CCCN2C(=O)[C@H](CC(C)(C)C)NC(=O)[C@H](CO)NC(=O)[C@H](CCCNC(=N)N)NC(=O)[C@H](CO)NC1=O
# B4: ((N-Me)G)-IC+SRS-((tBu)A)-PPI-(Pen)+IPP-NH2 (peptide)
# peptide: [Sar]ICSRS[tBuAla]PPI[Pen]IPP-NH2
# modifications: disulfide 3-11; N-terminus assumed
# SMILES: CC[C@H](C)[C@H](NC(=O)CNC)C(=O)N[C@H]1CSSC(C)(C)[C@@H](C(=O)N[C@H](C(=O)N2CCC[C@H]2C(=O)N2CCC[C@H]2C(N)=O)[C@@H](C)CC)NC(=O)[C@H]([C@@H](C)CC)NC(=O)[C@@H]2CCCN2C(=O)[C@@H]2CCCN2C(=O)[C@H](CC(C)(C)C)NC(=O)[C@H](CO)NC(=O)[C@H](CCCNC(=N)N)NC(=O)[C@H](CO)NC1=O
# B5: AIC+SRS-((tBu)A)-P-((4-CF3)P)-IC+IPD-NH2 (peptide)
# peptide: AICSRS[tBuAla]P[Pro(cis-4-CF3)]ICIPD-NH2
# modifications: disulfide 3-11; N-terminus assumed
# SMILES: CC[C@H](C)[C@H](NC(=O)[C@H](C)N)C(=O)N[C@H]1CSSC[C@@H](C(=O)N[C@H](C(=O)N2CCC[C@H]2C(=O)N[C@@H](CC(=O)O)C(N)=O)[C@@H](C)CC)NC(=O)[C@H]([C@@H](C)CC)NC(=O)[C@@H]2C[C@H](C(F)(F)F)CN2C(=O)[C@@H]2CCCN2C(=O)[C@H](CC(C)(C)C)NC(=O)[C@H](CO)NC(=O)[C@H](CCCNC(=N)N)NC(=O)[C@H](CO)NC1=O
# B6: AIC+SRSLP-(Oic)-I-((N-Me)C)+I-NH2 (peptide)
# peptide: AICSRSLP[Oic]I[NMeC]I-NH2
# modifications: disulfide 3-11; N-terminus assumed
# SMILES: CC[C@H](C)[C@H](NC(=O)[C@@H]1CSSC[C@H](NC(=O)[C@@H](NC(=O)[C@H](C)N)[C@@H](C)CC)C(=O)N[C@@H](CO)C(=O)N[C@@H](CCCNC(=N)N)C(=O)N[C@@H](CO)C(=O)N[C@@H](CC(C)C)C(=O)N2CCC[C@H]2C(=O)N2[C@@H](C[C@@H]3CCCC[C@@H]32)C(=O)N[C@@H]([C@@H](C)CC)C(=O)N1C)C(N)=O
# B7: aIC+SRSLP-(Oic)-I-(Pen)+I-NH2 (peptide)
# peptide: [dA]ICSRSLP[Oic]I[Pen]I-NH2
# modifications: disulfide 3-11; N-terminus assumed
# SMILES: CC[C@H](C)[C@H](NC(=O)[C@H]1NC(=O)[C@H]([C@@H](C)CC)NC(=O)[C@@H]2C[C@@H]3CCCC[C@@H]3N2C(=O)[C@@H]2CCCN2C(=O)[C@H](CC(C)C)NC(=O)[C@H](CO)NC(=O)[C@H](CCCNC(=N)N)NC(=O)[C@H](CO)NC(=O)[C@@H](NC(=O)[C@@H](NC(=O)[C@@H](C)N)[C@@H](C)CC)CSSC1(C)C)C(N)=O
# B8: ((N-Me)A)-IC+SRSLP-(Oic)-I-(Pen)+IPE-OH (peptide)
# peptide: [NMeA]ICSRSLP[Oic]I[Pen]IPE-OH
# modifications: disulfide 3-11; N-terminus assumed
# SMILES: CC[C@H](C)[C@H](NC(=O)[C@H](C)NC)C(=O)N[C@H]1CSSC(C)(C)[C@@H](C(=O)N[C@H](C(=O)N2CCC[C@H]2C(=O)N[C@@H](CCC(=O)O)C(=O)O)[C@@H](C)CC)NC(=O)[C@H]([C@@H](C)CC)NC(=O)[C@@H]2C[C@@H]3CCCC[C@@H]3N2C(=O)[C@@H]2CCCN2C(=O)[C@H](CC(C)C)NC(=O)[C@H](CO)NC(=O)[C@H](CCCNC(=N)N)NC(=O)[C@H](CO)NC1=O
# B9: ((N-Me)A)-IC+SRSLP-(Oic)-I-(Pen)+IPD-OH (peptide)
# peptide: [NMeA]ICSRSLP[Oic]I[Pen]IPD-OH
# modifications: disulfide 3-11; N-terminus assumed
# SMILES: CC[C@H](C)[C@H](NC(=O)[C@H](C)NC)C(=O)N[C@H]1CSSC(C)(C)[C@@H](C(=O)N[C@H](C(=O)N2CCC[C@H]2C(=O)N[C@@H](CC(=O)O)C(=O)O)[C@@H](C)CC)NC(=O)[C@H]([C@@H](C)CC)NC(=O)[C@@H]2C[C@@H]3CCCC[C@@H]3N2C(=O)[C@@H]2CCCN2C(=O)[C@H](CC(C)C)NC(=O)[C@H](CO)NC(=O)[C@H](CCCNC(=N)N)NC(=O)[C@H](CO)NC1=O
# B10: Ac-IC+SRS-((tBu)A)-PPI-(Pen)+IPD-NH2 (peptide)
# peptide: Ac-ICSRS[tBuAla]PPI[Pen]IPD-NH2
# modifications: disulfide 2-10
# SMILES: CC[C@H](C)[C@H](NC(C)=O)C(=O)N[C@H]1CSSC(C)(C)[C@@H](C(=O)N[C@H](C(=O)N2CCC[C@H]2C(=O)N[C@@H](CC(=O)O)C(N)=O)[C@@H](C)CC)NC(=O)[C@H]([C@@H](C)CC)NC(=O)[C@@H]2CCCN2C(=O)[C@@H]2CCCN2C(=O)[C@H](CC(C)(C)C)NC(=O)[C@H](CO)NC(=O)[C@H](CCCNC(=N)N)NC(=O)[C@H](CO)NC1=O
# B11: (4-(Aminomethyl)benzoic acid)-IC+SRS-((tBu)A)-PPI-(Pen)+IPD-NH2 (peptide)
# peptide: [4Amb]ICSRS[tBuAla]PPI[Pen]IPD-NH2
# modifications: disulfide 3-11; N-terminus assumed
# SMILES: CC[C@H](C)[C@H](NC(=O)c1ccc(CN)cc1)C(=O)N[C@H]1CSSC(C)(C)[C@@H](C(=O)N[C@H](C(=O)N2CCC[C@H]2C(=O)N[C@@H](CC(=O)O)C(N)=O)[C@@H](C)CC)NC(=O)[C@H]([C@@H](C)CC)NC(=O)[C@@H]2CCCN2C(=O)[C@@H]2CCCN2C(=O)[C@H](CC(C)(C)C)NC(=O)[C@H](CO)NC(=O)[C@H](CCCNC(=N)N)NC(=O)[C@H](CO)NC1=O
# B12: (Gamma-Abu)-IC+SRS-((tBu)A)-PPI-((N-Me)C)+IPD-NH2 (peptide)
# peptide: [GABA]ICSRS[tBuAla]PPI[NMeC]IPD-NH2
# modifications: disulfide 3-11; N-terminus assumed
# SMILES: CC[C@H](C)[C@H](NC(=O)CCCN)C(=O)N[C@H]1CSSC[C@@H](C(=O)N[C@H](C(=O)N2CCC[C@H]2C(=O)N[C@@H](CC(=O)O)C(N)=O)[C@@H](C)CC)N(C)C(=O)[C@H]([C@@H](C)CC)NC(=O)[C@@H]2CCCN2C(=O)[C@@H]2CCCN2C(=O)[C@H](CC(C)(C)C)NC(=O)[C@H](CO)NC(=O)[C@H](CCCNC(=N)N)NC(=O)[C@H](CO)NC1=O
# Molecular target: T1, Recombinant human MASP1 enzyme (fragment corresponding to amino acids 297-699, C-terminal His Tag) (human, UniProt P48740 297-699)
# T1 sequence: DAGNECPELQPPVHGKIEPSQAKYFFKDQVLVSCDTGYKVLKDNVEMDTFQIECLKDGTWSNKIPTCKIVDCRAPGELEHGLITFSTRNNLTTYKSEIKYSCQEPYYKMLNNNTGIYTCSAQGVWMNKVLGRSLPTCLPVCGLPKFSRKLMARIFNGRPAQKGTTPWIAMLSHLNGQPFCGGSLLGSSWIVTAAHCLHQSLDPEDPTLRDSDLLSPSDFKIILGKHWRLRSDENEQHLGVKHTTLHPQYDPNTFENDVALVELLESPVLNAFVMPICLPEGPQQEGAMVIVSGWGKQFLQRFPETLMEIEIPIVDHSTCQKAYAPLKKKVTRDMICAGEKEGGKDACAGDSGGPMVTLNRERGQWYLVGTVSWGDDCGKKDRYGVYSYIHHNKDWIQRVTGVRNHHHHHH
# Assay: cell-based or functional assay
row,Binder,human MASP1 IC50 [nM]
1,B1,3.8
2,B2,3.8
3,B3,3.8
4,B4,3.8
5,B5,3.9
6,B6,3.9
7,B7,3.9
8,B8,3.9
9,B9,3.9
10,B10,16

# Molecular target: Recombinant human MASP2 enzyme (fragment corresponding to amino acids 297-686, C-terminal His Tag) (human, UniProt O00187 297-686)
# Sequence (O00187 other isoform, or with tags, fused parts or gaps limits assumed): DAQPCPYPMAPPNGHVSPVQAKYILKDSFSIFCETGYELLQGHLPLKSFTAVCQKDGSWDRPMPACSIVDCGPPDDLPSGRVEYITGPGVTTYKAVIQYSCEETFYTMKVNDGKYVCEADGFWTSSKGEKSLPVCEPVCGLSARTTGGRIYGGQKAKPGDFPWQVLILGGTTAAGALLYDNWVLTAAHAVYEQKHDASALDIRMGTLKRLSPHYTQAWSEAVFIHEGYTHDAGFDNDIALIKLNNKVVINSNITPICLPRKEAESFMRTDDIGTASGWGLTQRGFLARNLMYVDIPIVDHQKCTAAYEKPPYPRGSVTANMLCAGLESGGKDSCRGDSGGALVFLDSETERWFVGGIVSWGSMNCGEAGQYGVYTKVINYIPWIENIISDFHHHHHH
# Assay: cell-based or functional assay
row,Binder,human MASP2 IC50 [nM]
1,B1,140
2,B2,210
3,B3,44
4,B4,63
5,B5,930
6,B6,170
7,B7,100
8,B8,170
9,B9,160
10,B11,8.1
11,B12,210
